Test results published in patent US20250084142A1 (INTARCIA THERAPEUTICS, published 2025).
Values belong to the binder of their own block, whether it stands above or below them. Starred links: 1 amine or outer side, 2 acyl side, 3 side chain; linkers in the order of their positions; H or OH if unused. Non-standard residues stand in square brackets, D forms with d. Groups on a side chain read outwards from the residue. No end group written: not given here. *: point of attachment. dpeg = —[CO(CH2)O(CH2)2O(CH2)NH]— spacer, O=C(COCCOCN[*:1])[*:2]; C20 diacid = O=C(O)CCCCCCCCCCCCCCCCCCC(=O)*; γGlu = O=C(O)[C@H](CCC(=O)[*:2])N[*:1]; NMeY = CN[C@@H](Cc1ccc(O)cc1)C(=O)O

Legend:
[1] = target: T1, NPY5R; test: cell-based or functional assay
T1 sequence (Q15761 1-445, species assumed, looked up): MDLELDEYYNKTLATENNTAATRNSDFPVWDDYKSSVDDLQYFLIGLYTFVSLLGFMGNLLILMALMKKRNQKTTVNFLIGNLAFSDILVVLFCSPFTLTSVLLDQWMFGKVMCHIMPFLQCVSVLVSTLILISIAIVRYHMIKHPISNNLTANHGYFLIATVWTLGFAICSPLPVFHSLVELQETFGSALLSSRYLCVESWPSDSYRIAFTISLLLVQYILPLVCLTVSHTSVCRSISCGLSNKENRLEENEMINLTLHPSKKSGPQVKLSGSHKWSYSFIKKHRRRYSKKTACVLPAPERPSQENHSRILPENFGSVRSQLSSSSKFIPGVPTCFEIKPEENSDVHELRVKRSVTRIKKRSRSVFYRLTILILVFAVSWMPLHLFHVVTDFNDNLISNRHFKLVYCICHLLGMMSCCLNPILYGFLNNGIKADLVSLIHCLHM

[2] = target: T2, NPY2R; test: cell-based or functional assay
T2 sequence (P49146 1-381, species assumed, looked up): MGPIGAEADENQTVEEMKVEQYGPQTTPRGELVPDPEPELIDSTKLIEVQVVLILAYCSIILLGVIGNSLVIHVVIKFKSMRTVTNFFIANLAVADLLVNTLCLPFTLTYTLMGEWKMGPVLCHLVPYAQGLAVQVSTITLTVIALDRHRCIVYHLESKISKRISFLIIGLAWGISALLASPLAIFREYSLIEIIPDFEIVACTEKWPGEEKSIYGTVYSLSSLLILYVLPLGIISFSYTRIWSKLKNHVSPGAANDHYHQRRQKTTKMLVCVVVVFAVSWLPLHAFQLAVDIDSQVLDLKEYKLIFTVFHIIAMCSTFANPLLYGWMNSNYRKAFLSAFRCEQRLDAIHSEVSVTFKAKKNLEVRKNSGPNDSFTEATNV

Binder: PKPEAPGK([γGlu-γGlu-C20 diacid])DASPEEWDRYYKDLRHYLNWLTRQRF-NH2 [Compound A24]
NPY5R pEC50 [1]: 8.7 -Log(EC50, M) | NPY2R pEC50 [2]: 10.5 -Log(EC50, M)

Binder: PKPEAPGK([γGlu-γGlu-C20 diacid])DASPEEWTRYYKDLRHYLNWLTRQRF-NH2 [Compound A26]
NPY5R pEC50 [1]: 8.5 -Log(EC50, M) | NPY2R pEC50 [2]: 10.7 -Log(EC50, M)

B1: Compound A9 (peptide)
peptide: PKPEAPGKDASPEEWK([γGlu-γGlu-C20 diacid])RYYADARHYLNWLTRQR[NMeY]-NH2
modifications: N-terminus assumed
SMILES: CC(C)C[C@H](NC(=O)[C@H](Cc1ccc(O)cc1)NC(=O)[C@H](Cc1c[nH]cn1)NC(=O)[C@H](CCCNC(=N)N)NC(=O)[C@H](C)NC(=O)[C@H](CC(=O)O)NC(=O)[C@H](C)NC(=O)[C@H](Cc1ccc(O)cc1)NC(=O)[C@H](Cc1ccc(O)cc1)NC(=O)[C@H](CCCNC(=N)N)NC(=O)[C@H](CCCCNC(=O)CC[C@H](NC(=O)CC[C@H](NC(=O)CCCCCCCCCCCCCCCCCCC(=O)O)C(=O)O)C(=O)O)NC(=O)[C@H](Cc1c[nH]c2ccccc12)NC(=O)[C@H](CCC(=O)O)NC(=O)[C@H](CCC(=O)O)NC(=O)[C@@H]1CCCN1C(=O)[C@H](CO)NC(=O)[C@H](C)NC(=O)[C@H](CC(=O)O)NC(=O)[C@H](CCCCN)NC(=O)CNC(=O)[C@@H]1CCCN1C(=O)[C@H](C)NC(=O)[C@H](CCC(=O)O)NC(=O)[C@@H]1CCCN1C(=O)[C@H](CCCCN)NC(=O)[C@@H]1CCCN1)C(=O)N[C@@H](CC(N)=O)C(=O)N[C@@H](Cc1c[nH]c2ccccc12)C(=O)N[C@@H](CC(C)C)C(=O)N[C@H](C(=O)N[C@@H](CCCNC(=N)N)C(=O)N[C@@H](CCC(N)=O)C(=O)N[C@@H](CCCNC(=N)N)C(=O)N(C)[C@@H](Cc1ccc(O)cc1)C(N)=O)[C@@H](C)O
NPY5R pEC50 [1]: 6 -Log(EC50, M) | NPY2R pEC50 [2]: 9.6 -Log(EC50, M)

Binder: PKPEAPGK([γGlu-γGlu-C20 diacid])DASPEEWNRYYADLRHYLNWLTRQRF-NH2 [Compound A13]
NPY5R pEC50 [1]: 8.7 -Log(EC50, M) | NPY2R pEC50 [2]: 10.2 -Log(EC50, M)

Binder: PKPEAPG[dK]([γGlu-γGlu-C20 diacid])DASPEEWNRYYADLRHYLNWLTRQRF-NH2 [Compound A15]
NPY5R pEC50 [1]: 8 -Log(EC50, M) | NPY2R pEC50 [2]: 10.2 -Log(EC50, M)

B4: Compound A19 (peptide)
peptide: PKPEKPGK([γGlu-γGlu-C20 diacid])DASPEEWNRYYKDLRHYLNWLTRQRF-NH2
modifications: N-terminus assumed
SMILES: CC(C)C[C@H](NC(=O)[C@H](CC(=O)O)NC(=O)[C@H](CCCCN)NC(=O)[C@H](Cc1ccc(O)cc1)NC(=O)[C@H](Cc1ccc(O)cc1)NC(=O)[C@H](CCCNC(=N)N)NC(=O)[C@H](CC(N)=O)NC(=O)[C@H](Cc1c[nH]c2ccccc12)NC(=O)[C@H](CCC(=O)O)NC(=O)[C@H](CCC(=O)O)NC(=O)[C@@H]1CCCN1C(=O)[C@H](CO)NC(=O)[C@H](C)NC(=O)[C@H](CC(=O)O)NC(=O)[C@H](CCCCNC(=O)CC[C@H](NC(=O)CC[C@H](NC(=O)CCCCCCCCCCCCCCCCCCC(=O)O)C(=O)O)C(=O)O)NC(=O)CNC(=O)[C@@H]1CCCN1C(=O)[C@H](CCCCN)NC(=O)[C@H](CCC(=O)O)NC(=O)[C@@H]1CCCN1C(=O)[C@H](CCCCN)NC(=O)[C@@H]1CCCN1)C(=O)N[C@@H](CCCNC(=N)N)C(=O)N[C@@H](Cc1c[nH]cn1)C(=O)N[C@@H](Cc1ccc(O)cc1)C(=O)N[C@@H](CC(C)C)C(=O)N[C@@H](CC(N)=O)C(=O)N[C@@H](Cc1c[nH]c2ccccc12)C(=O)N[C@@H](CC(C)C)C(=O)N[C@H](C(=O)N[C@@H](CCCNC(=N)N)C(=O)N[C@@H](CCC(N)=O)C(=O)N[C@@H](CCCNC(=N)N)C(=O)N[C@@H](Cc1ccccc1)C(N)=O)[C@@H](C)O
NPY5R pEC50 [1]: 8.7 -Log(EC50, M) | NPY2R pEC50 [2]: 10.5 -Log(EC50, M)

Binder: PKPEAPGK([γGlu-γGlu-C20 diacid])DASPEEWSRYYKDLRHYLNWLTRQRF-NH2 [Compound A25]
NPY5R pEC50 [1]: 8.4 -Log(EC50, M) | NPY2R pEC50 [2]: 10.9 -Log(EC50, M)

Results, then the binder that gave them:

NPY5R pEC50 [1]: 9.3 -Log(EC50, M) | NPY2R pEC50 [2]: 10.3 -Log(EC50, M)
B2: Compound A18 (peptide)
peptide: PKPEAPG[dK]([γGlu-dpeg-dpeg-γGlu-C20 diacid])DASPEEWNRYYADLRHYLNWLTRQRF-NH2
modifications: N-terminus assumed
SMILES: CC(C)C[C@H](NC(=O)[C@H](CC(=O)O)NC(=O)[C@H](C)NC(=O)[C@H](Cc1ccc(O)cc1)NC(=O)[C@H](Cc1ccc(O)cc1)NC(=O)[C@H](CCCNC(=N)N)NC(=O)[C@H](CC(N)=O)NC(=O)[C@H](Cc1c[nH]c2ccccc12)NC(=O)[C@H](CCC(=O)O)NC(=O)[C@H](CCC(=O)O)NC(=O)[C@@H]1CCCN1C(=O)[C@H](CO)NC(=O)[C@H](C)NC(=O)[C@H](CC(=O)O)NC(=O)[C@@H](CCCCNC(=O)CC[C@H](NC(=O)COCCOCNC(=O)COCCOCNC(=O)CC[C@H](NC(=O)CCCCCCCCCCCCCCCCCCC(=O)O)C(=O)O)C(=O)O)NC(=O)CNC(=O)[C@@H]1CCCN1C(=O)[C@H](C)NC(=O)[C@H](CCC(=O)O)NC(=O)[C@@H]1CCCN1C(=O)[C@H](CCCCN)NC(=O)[C@@H]1CCCN1)C(=O)N[C@@H](CCCNC(=N)N)C(=O)N[C@@H](Cc1c[nH]cn1)C(=O)N[C@@H](Cc1ccc(O)cc1)C(=O)N[C@@H](CC(C)C)C(=O)N[C@@H](CC(N)=O)C(=O)N[C@@H](Cc1c[nH]c2ccccc12)C(=O)N[C@@H](CC(C)C)C(=O)N[C@H](C(=O)N[C@@H](CCCNC(=N)N)C(=O)N[C@@H](CCC(N)=O)C(=O)N[C@@H](CCCNC(=N)N)C(=O)N[C@@H](Cc1ccccc1)C(N)=O)[C@@H](C)O

NPY5R pEC50 [1]: 8.3 -Log(EC50, M) | NPY2R pEC50 [2]: 10.4 -Log(EC50, M)
Binder: PKPEAPGK([γGlu-γGlu-C20 diacid])DASPEEWNRYY[dK]DLRHYLNWLTRQRF-NH2 [Compound A21]

NPY5R pEC50 [1]: 8.7 -Log(EC50, M) | NPY2R pEC50 [2]: 10.2 -Log(EC50, M)
B3: Compound A17 (peptide)
peptide: PKPEAPGK([γGlu-dpeg-dpeg-γGlu-C20 diacid])DASPEEWNRYYADLRHYLNWLTRQRF-NH2
modifications: N-terminus assumed
SMILES: CC(C)C[C@H](NC(=O)[C@H](CC(=O)O)NC(=O)[C@H](C)NC(=O)[C@H](Cc1ccc(O)cc1)NC(=O)[C@H](Cc1ccc(O)cc1)NC(=O)[C@H](CCCNC(=N)N)NC(=O)[C@H](CC(N)=O)NC(=O)[C@H](Cc1c[nH]c2ccccc12)NC(=O)[C@H](CCC(=O)O)NC(=O)[C@H](CCC(=O)O)NC(=O)[C@@H]1CCCN1C(=O)[C@H](CO)NC(=O)[C@H](C)NC(=O)[C@H](CC(=O)O)NC(=O)[C@H](CCCCNC(=O)CC[C@H](NC(=O)COCCOCNC(=O)COCCOCNC(=O)CC[C@H](NC(=O)CCCCCCCCCCCCCCCCCCC(=O)O)C(=O)O)C(=O)O)NC(=O)CNC(=O)[C@@H]1CCCN1C(=O)[C@H](C)NC(=O)[C@H](CCC(=O)O)NC(=O)[C@@H]1CCCN1C(=O)[C@H](CCCCN)NC(=O)[C@@H]1CCCN1)C(=O)N[C@@H](CCCNC(=N)N)C(=O)N[C@@H](Cc1c[nH]cn1)C(=O)N[C@@H](Cc1ccc(O)cc1)C(=O)N[C@@H](CC(C)C)C(=O)N[C@@H](CC(N)=O)C(=O)N[C@@H](Cc1c[nH]c2ccccc12)C(=O)N[C@@H](CC(C)C)C(=O)N[C@H](C(=O)N[C@@H](CCCNC(=N)N)C(=O)N[C@@H](CCC(N)=O)C(=O)N[C@@H](CCCNC(=N)N)C(=O)N[C@@H](Cc1ccccc1)C(N)=O)[C@@H](C)O

NPY5R pEC50 [1]: 8.6 -Log(EC50, M) | NPY2R pEC50 [2]: 10.4 -Log(EC50, M)
Binder: PKPEAPGK([γGlu-γGlu-C20 diacid])DASPEEWQRYYKDLRHYLNWLTRQRF-NH2 [Compound A23]

NPY5R pEC50 [1]: 8.7 -Log(EC50, M) | NPY2R pEC50 [2]: 10.5 -Log(EC50, M)
Binder: PKPEAPGK([γGlu-γGlu-C20 diacid])DASPKEWNRYYKDLRHYLNWLTRQRF-NH2 [Compound A20]

NPY5R pEC50 [1]: 9.1 -Log(EC50, M) | NPY2R pEC50 [2]: 10.2 -Log(EC50, M)
Binder: PKPEAPGKDASPEEWNRYYK([γGlu-dpeg-dpeg-γGlu-C20 diacid])DLRHYLNWLTRQRF-NH2 [Compound A16]
